Measured values reported in the supplement of paper PMC12764529.
± gives the half width of the 95% confidence interval.

Key:
[1] = folding stability dG unfold from chymotrypsin proteolysis; higher = more stable
Outline: (§1)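 Mini-proteins designed to be under 80 residues and free of cysteine were carried in a PA-tagged cDNA display construct and digested with trypsin and with chymotrypsin. Each protease was applied at 11 threefold-diluted concentrations, alongside a no-protease condition, before sequencing. K50 came from Bayesian fitting of the sequencing counts, and unfolding free energy was obtained by comparing it with a sequence-predicted unfolded-state K50 and a shared folded-state K50, for each protease separately or for both together. Designs were retained only if their AlphaFold2 dimer inter-PAE exceeded 15.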

[2] = folding stability dG unfold (combined trypsin and chymotrypsin); higher = more stable
Outline: as §1

[3] = folding stability dG unfold from trypsin proteolysis; higher = more stable
Outline: as §1

| Sequence | folding stability dG unfold [1] [kcal/mol] | folding stability dG unfold [2] [kcal/mol] | folding stability dG unfold [3] [kcal/mol] |
| --- | --- | --- | --- |
| SAGGSAGGSAGGSSMSSGPGRLSITTSTVDTGSFFKPGGEVEGSKTTTVTVTTLLPPSTPSAGGSAGGSAGG [r7_614_JUSTAS] | 1.27 ± 0.067 | 0.908 ± 0.054 | 0.21 ± 0.025 |
| SAGGSAGGSAGGSSSSTVPLPDDTTLTVHTGSSSYTVTTTSPDGTSTTTTVSPATVAAALSAGGSAGGSAGG [r11_1068_JUSTAS] | -0.0339 ± 0.1 | 0.188 ± 0.077 | 0.255 ± 0.022 |
| SAGGSAGGSAGGSSTSLIGNSTVTVDPVYVTDTGERGFVISADVPPSVSEAVVEAHVASSAGGSAGGSAGGS [r10_531_JUSTAS] | 0.0382 ± 0.022 | 0.485 ± 0.05 | 0.869 ± 0.028 |
| SAGGSAGGSAGGSSYQLKLEAEFLVGDSSGKLYKVKLTITVNEDGSISIDLEVLSVFDVSAGGSAGGSAGGS [r4_496_TrMRF] | 5.46 ± 0.11 | 5.41 ± 0.16 | 4.16 ± 0.2 |
| SAGGSAGGSAGGSTRDFLVKDPSNGQWYKVTATTDPAGAVTITFPETGEVVPLEGLVVSPSAGGSAGGSAGG [r11_301_JUSTAS] | 1.338 ± 0.012 | 1.43 ± 0.042 | 1.47 ± 0.046 |
| SAGGSAGGSAGGSVAYVAPDGDKLIVRVVRPDGSVEEKEFDSLEDLKTLPDDVPVAFLVSAGGSAGGSAGGS [r4_447_TrMRF] | -0.0498 ± 0.15 | 0.516 ± 0.11 | 0.86 ± 0.034 |
| SAGGSAGGSAGGSVPSVKLPKVGLKTDPVSSVLDFGEEKGDPVSVSIHLTLFLPDGTILLSAGGSAGGSAGG [r11_890_JUSTAS] | 0.881 ± 0.12 | 0.672 ± 0.17 | 0.161 ± 0.082 |
| SAGGSAGGSAGGSVTSTSSVGSSPGSTTTLTYPEKPLYVTVYTELKDDPTVVTTETFPLLSAGGSAGGSAGG [r7_509_JUSTAS] | 1.73 ± 0.066 | 1.56 ± 0.39 | 1.22 ± 0.19 |
| SAGGSAGGSAGGSYEVKEETEPKTGLKITTTTLPDGTIETTTINPATGEVTTTTSSPLESAGGSAGGSAGGS [r10_127_JUSTAS] | 1.89 ± 0.052 | 1.73 ± 0.15 | 1.34 ± 0.072 |
| SAGGSAGGSAGGSYIIVQFPADEIKEALPPGFEIKSIERSPKNGWVMVAIRYPKDGKPISAGGSAGGSAGGS [r4_435_TrROS] | 0.416 ± 0.17 | 0.818 ± 0.2 | 1.04 ± 0.038 |
| SAGGSAGGSAGGTITIPIYLDDKWITITRIELSPPDGKIKIEFTFNNRPREFDIPIPPGASAGGSAGGSAGG [r7_477_TrROS] | 2.71 ± 0.074 | 2.36 ± 0.11 | 1.9 ± 0.049 |
| SAGGSAGGSAGGTITLPNGAKVTRIEFLPDGTLRVEAVVETDGGPVTVEITLPVYPSLATSAGGSAGGSAGG [r7_37_TrMRF] | 2.13 ± 0.036 | 2.17 ± 0.037 | 2.19 ± 0.058 |
| SAGGSAGGSAGGTKTIPFPIEEIEVEHNPDNNYYHVTIRFPDNGKPITFMFPPGDTITISAGGSAGGSAGGS [r10_819_TrROS] | 0.836 ± 0.15 | 0.868 ± 0.12 | 0.812 ± 0.025 |
| SAGGSAGGSAGGTLEAIKELAKDMPPGDKNIPIKIPDGKPYTIDVEMDPDGKMEIDIEPSAGGSAGGSAGGS [r10_1017_TrROS] | -0.634 ± 0.86 | 0.466 ± 0.2 | 1.19 ± 0.041 |
| SAGGSAGGSAGGTLEFTFPGEGNLLAKVRIDLGESGNVRIDVYIYDGDTLLAKATFTLNLSAGGSAGGSAGG [r7_79_TrMRF] | 5.46 ± 0.11 | 5.48 ± 0.13 | 4.55 ± 0.12 |
| SAGGSAGGSAGGVEIPPDKPVAIEVTSPEGPTATLIFDPKDGTVTVIEGGKPVEVPAEDFSAGGSAGGSAGG [r7_937_TrMRF] | -1.06 ± 0.53 | -0.377 ± 0.29 | 0.0909 ± 0.059 |
| SAGGSAGGSAGGVEIVIMFPRGMPPEQFAKMIAKWLRRQGLPPNVKVDIKIIPIDPDDMSAGGSAGGSAGGS [r10_746_TrROS] | 3.35 ± 0.066 | 3.15 ± 0.18 | 2.82 ± 0.051 |
| SAGGSAGGSAGGVGKDKPVIIKIKIKRKVYGLNTPELIAEEEEEIVVVVHPDVNPEKIKPSAGGSAGGSAGG [r7_591_TrMRF] | 2.34 ± 0.056 | 1.83 ± 0.35 | 1.06 ± 0.074 |
| SAGGSAGGSAGGVKPGDFVLIKLTLTEKYYDPETGELIEEKEVELTILIPKGTSLEELKLSAGGSAGGSAGG [r7_591_TrROS_Hall] | 1.96 ± 0.089 | 2.17 ± 0.25 | 2.3 ± 0.17 |
| SAGGSAGGSAGGVVVVEVEIRLSDEEIEALKDLGISAEDLTLRVTVVVELPPPPPAEEESAGGSAGGSAGGS [r10_1149_TrROS_Hall] | 1.04 ± 0.13 | 1.5 ± 0.21 | 2.23 ± 0.2 |
| SAGGSAGGSAGGWDVEIEPFPDGFIFITAEGPNGRKLVIVVMVVPEGKLMYMIVPLDDLSAGGSAGGSAGGS [r10_140_TrROS] | 3.71 ± 0.097 | 3.34 ± 0.19 | 2.35 ± 0.095 |

| Sequence | folding stability dG unfold [1] [kcal/mol] | folding stability dG unfold [2] [kcal/mol] | folding stability dG unfold [3] [kcal/mol] |
| --- | --- | --- | --- |
| SAGGSAGGSAGGWIRNKDGKPVKLEIYPFPVEMWMYRKKPDGGWEPHPMRMPFTFIRITPSAGGSAGGSAGG [r7_90_TrROS] | 1.55 ± 0.11 | 1.65 ± 0.11 | 1.59 ± 0.049 |
| SAGGSAGGSAGGWYIYFPNHYYPIKKITINPGGNIEIEFPNGNERTFDNVSIMPPGQEISAGGSAGGSAGGS [r10_1151_TrROS] | 0.105 ± 0.14 | 0.219 ± 0.097 | 0.178 ± 0.047 |
| SAGGSAGGSAGGYFIRINNGRTFPFPSPEDAEEIVKTIARPFGHPDMTIEIYRMPPEQFPSAGGSAGGSAGG [r7_839_TrROS] | -0.1 ± 0.24 | 0.0194 ± 0.18 | -0.0675 ± 0.22 |
| SAGGSAGGSAGGYIEIVFAHPDPEPGYKYAMVMEIQMDPPGNMEMNIRVIKDPEDAKEAFSAGGSAGGSAGG [r11_792_TrROS] | 1.43 ± 0.067 | 1.41 ± 0.19 | 1.35 ± 0.12 |
| SAGGSAGGSAGHMVKVKITKSKGGSSLPLEEKEIELDIDEEKLEELKEEAKKKGYTVEIESAGGSAGGSAGG [r17_18_JUSTAS] | 0.0362 ± 0.15 | -0.0397 ± 0.26 | 0.0424 ± 0.11 |
| SAGGSAGGSAGHRSVMVTVDDIAKENGIKIPPGSYLMVTVEGNKVKDIMIQPMKPKPEDPSAGGSAGGSAGG [r11_616_TrROS] | -0.0198 ± 0.24 | -0.17 ± 0.18 | -0.499 ± 0.44 |
| SAGGSAGGSAGIEIELNGKPVTIHPNPDGYYRVRFPGPGKSILIPGMPPDDIKDFAKELLSAGGSAGGSAGG [r11_1085_TrROS] | 0.137 ± 0.15 | 0.0206 ± 0.1 | -0.161 ± 0.15 |
| SAGGSAGGSAGIEIHVMEDPDGRWWLMITIKVKYKVRNPEDGDPIFEFEVTYTIMIWLKASAGGSAGGSAGG [r17_124_TrROS] | 5.9 ± 0.17 | > 6 | 4.3 ± 0.24 |
| SAGGSAGGSAGIKIPPGQKLSIEENPDGNMEIKFPDPGQKFTIPPNAPIEVDPNNWIYIKSAGGSAGGSAGG [r17_49_TrROS] | 0.0738 ± 0.4 | 0.181 ± 0.33 | 0.00801 ± 0.33 |
| SAGGSAGGSAGIPLGPDGGLIVTEGPDGPVEERLFASPEEARRWIEEHLPEGWRVVFRPLSAGGSAGGSAGG [r11_983_TrMRF] | 1.6 ± 0.13 | 1.47 ± 0.058 | 1.15 ± 0.017 |
| SAGGSAGGSAGIRLDSLEEALKYIRKNFPPGRTVEIRVYDGDKPVEITVQVDENGDIKIVSAGGSAGGSAGG [r17_69_TrROS] | 3.227 ± 0.02 | 3.19 ± 0.092 | 2.91 ± 0.15 |
| SAGGSAGGSAGKAKIVKIEKVKNKNGETYYIIKLEGKKEIFVIKDKNGKKKKIPLKELKPSAGGSAGGSAGG [r17_286_TrROS_Hall] | 2.37 ± 0.026 | 2.11 ± 0.048 | 1.42 ± 0.043 |
| SAGGSAGGSAGKEYIVRITLPNGKVYEFPGKLEDVVKALPPEYKDAVIEVFDPRTGKRVSSAGGSAGGSAGG [r11_353_TrMRF] | 4.26 ± 0.057 | 3.84 ± 0.089 | 2.53 ± 0.049 |
| SAGGSAGGSAGKEYYVVAKVEDPSTGKVTVYVGPFSDFVKTFDPKNSKVEFFLVEKDALKSAGGSAGGSAGG [r11_334_TrMRF] | 3.31 ± 0.044 | 2.89 ± 0.077 | 1.87 ± 0.073 |
| SAGGSAGGSAGKIDPKDIEKVEFEIDEESGKGKAFVILKNGEPAEIEFSSIEEAIKALLGSAGGSAGGSAGG [r11_339_TrMRF] | 0.981 ± 0.14 | 1.37 ± 0.16 | 1.93 ± 0.099 |
| SAGGSAGGSAGKIEIIKDKKNGKYTVKIRNKDGEEIEIEVDSLEELEELAKKLNIEVEVESAGGSAGGSAGG [r11_1049_TrROS_Hall] | 3.4 ± 0.21 | 3.18 ± 0.15 | 2.33 ± 0.16 |
| SAGGSAGGSAGKIEIKVVKKTPNYVYYEIRFEETKKTIIVKAKSKEDAEEAAKKLLKELKSAGGSAGGSAGG [r11_848_TrROS_Hall] | 2.88 ± 0.062 | 2.62 ± 0.17 | 2.31 ± 0.099 |
| SAGGSAGGSAGKIEIYPNDNQYYIKITVPRRNPNNGKWERQERTIPMPPDQAKELLKNGISAGGSAGGSAGG [r11_389_TrROS] | -0.439 ± 0.45 | -0.17 ± 0.3 | 0.0667 ± 0.14 |
| SAGGSAGGSAGKIKIKNEDGSEYEVKKIEITIKNENGEKKKIKLEIELPKAKEVKIEKKKSAGGSAGGSAGG [r11_804_TrROS_Hall] | 0.32 ± 0.087 | -0.13 ± 0.29 | -1.2 ± 0.83 |
| SAGGSAGGSAGKKIKYRITIYNKKTGKTIEIEIEMSEDEIKKIAEELAKKYNVKIKIEPVSAGGSAGGSAGG [r11_515_TrROS_Hall] | 4.79 ± 0.13 | 4.56 ± 0.18 | 3.71 ± 0.13 |
| SAGGSAGGSAGKKIPFGKNVKILEIEEIDPDIIIIKFENSVFIVRILPNGEVKVIKFDIDSAGGSAGGSAGG [r11_612_TrMRF] | 2.4 ± 0.027 | 2.33 ± 0.09 | 1.83 ± 0.042 |
